In one test the target is Human CD33 full length (human, UniProt P20138 18-364). The test can be described thus: cell-based or functional assay.
Test [1] has as its target T1, human PSMA on cells (LNCaP) (human, UniProt Q04609 1-750).
T1 construct: whole, on cells; also called LNCaP cells
The test can be described thus: flow cytometry, mammalian Fab supernatant on LNCaP cells, anti-human kappa-RPE. The procedure: Individual Fab clones were isolated from the round 3 output of all panning experiments following pIX excision. Fab clones were tested for binding to chimp and cyno PSMA expressing HEK cells, as well as to human PSMA on LNCaP cells. Briefly, PSMA expressing cells were aliquoted into a V-bottom plate (CoStar 3357) at a density of 200,000 per well and incubated with (100 μl) supernatants expressing Fab fragments for 1 hour on ice. Cells were washed twice with PBS containing 2% FBS, and stained with a mouse anti-human kappa-RPE antibody (Life Technologies cat #MH10514) for 1 hour on ice. Cells were washed twice with PBS containing 2% FBS and resuspended in […] of the same wash buffer. Plates were read on a BD FACS Array flow cytometer. FACS data was analyzed in FlowJo software by live gating the healthy population of cells using forward scatter and side scatter, and then analyzing the cells within this gate for PE staining. Mean fluorescence intensity (MFI) was calculated and exported into Microsoft Excel. […] Fabs were sequenced and moved forward for cloning into mammalian expression vector for rescreening. True positives were selected from the binding of mammalian cell expressed Fab supernatants to PSMA-expressing cell lines.
FIGS. 22A, 22B, 22C and 22D show the titration curves for anti-PSMA panning hits vs. LNCaP cells. […] Binding profiles among hits were compared across cell lines expressing different species of PSMA.
(Flow cytometry measures light scatter and fluorescence of single cells or particles in a stream.)

For another test, the target named is T2, Rh-integrin a4b7 (UniProt P13612 34-977; P26010 20-723, limits assumed).
T2 construct: rh read as recombinant human
In words: Biacore 8K SPR, antibody over immobilised protein. The procedure:
(§1) Non-specific binding of the lead molecule to unrelated surfaces is determined by biosensor technology (Biacore 8K). Antibody is passed over SPR surfaces coated with unrelated proteins. […] Irrelevant surfaces include negatively charged protein (Soy Trypsin Inhibitor), positively charged protein (Lysozyme and β-defensin), hydrophobic (Rh-integrin a4b7), human IgG, sticky protein (Rh-CD19). Proper controls are used in this experiment. Lead is flown over two surfaces, one is a blank and the other has a molecule directly immobilized. The response unit (RU) level is determined by subtracting the blank RU from the test surface RU. […] A response unit ≥100 predicts high risks for non-specific binding to charged/hydrophobic/IgG surfaces which would create challenges during manufacturing and translate to poor PK properties.
Background: SPR reads the build-up and loss of mass on a sensor chip optically.

The next test addresses T3, Rh-CD19 (UniProt P15391 20-291, limits assumed).
T3 construct: rh read as recombinant human
T3 sequence (looked up): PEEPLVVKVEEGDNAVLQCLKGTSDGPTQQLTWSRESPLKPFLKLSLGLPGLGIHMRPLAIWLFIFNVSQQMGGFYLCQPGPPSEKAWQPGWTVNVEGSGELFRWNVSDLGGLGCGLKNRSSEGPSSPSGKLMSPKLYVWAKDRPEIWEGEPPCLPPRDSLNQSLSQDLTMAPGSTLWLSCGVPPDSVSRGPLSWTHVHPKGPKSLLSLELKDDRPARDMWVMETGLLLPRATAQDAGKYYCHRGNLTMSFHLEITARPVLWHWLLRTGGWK
The test can be described thus: Biacore 8K SPR, antibody over immobilised protein. The procedure: as §1

A further test has as its target T4, Human CD33 ECD-HSA (human).
T4 construct: CD33 ECD fused at the C-terminus to monomeric HSA (C58S) and a six-histidine tag; also called C33W2; huCD33 ECD-HSA
The test can be described thus: SPRi off-rate screen (IBIS MX96).

The target of test [2] is T5, TMEW1 (TMEFF2-FL-ECD-His-Avitag) (human, UniProt Q9UIK5 41-320).
T5 construct: Human TMEFF2 ECD with C-terminal G3S, 6xHis tag and Avi-tag, all in the entry; also called TMEFF2 ECD
T5 sequence: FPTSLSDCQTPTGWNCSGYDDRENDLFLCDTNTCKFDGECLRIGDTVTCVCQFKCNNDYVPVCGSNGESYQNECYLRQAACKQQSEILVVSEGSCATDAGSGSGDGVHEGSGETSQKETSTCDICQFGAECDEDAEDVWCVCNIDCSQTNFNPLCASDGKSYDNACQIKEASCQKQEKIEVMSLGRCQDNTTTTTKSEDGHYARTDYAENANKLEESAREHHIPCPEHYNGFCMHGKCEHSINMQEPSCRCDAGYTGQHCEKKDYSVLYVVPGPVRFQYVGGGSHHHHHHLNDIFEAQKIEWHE
The test can be described thus: Biacore 8K SPR, mAb captured on anti-human Fc, single cycle kinetics. The procedure: The binding of anti-TMEFF2 mAbs to human TMEFF2 ECD was measured by Biacore 8K SPR. The format of the assay was to capture the mAbs using a high density anti-human Fc surface, then inject human TMEFF2 concentration titration using a single cycle kinetics method. […] The mAbs were captured on the anti-human Fc IgG surface at 0.5 μg/ml (˜200-300 RU) on flow cell 2. The running buffer was then changed to HBSP+100 ug/ml BSA. TMEFF2 ECD at 30 nM concentration in 3-fold dilution series was injected from low to high concentration using single cycle kinetics method. The off-rate was monitored 30 minutes after the last or highest concentration injection and then the surface was regenerated using 0.8% phosphoric acid (Bio-Rad). A buffer blank run, capturing the same mAbs and using the same conditions of sample run was also completed. The raw data were processed by subtracting two sets of reference data from the response data: 1) reference flow cell 1 subtracted from sample flow cell 2 and 2) buffer blank run from experimental run. The processed data at all concentrations for each mAb were globally fit to a 1:1 simple Langmuir binding model to extract estimates of the kinetic (kon, koff) and affinity (KD) constants.

Residue numbers refer to the chain shown, from its start.

The record followed here is patent publication US20230322924A1 (Janssen / Centocor, published 2023).

The EC50 (read off the curve) is the midpoint of the concentration-response curve. High values mean weaker potency, low ones greater potency. In general, koff refers to the first-order rate constant of dissociation. A word on the Kd: it is the equilibrium constant for the complex coming apart. A low value points to higher affinity. The term kon denotes the rate constant with which the complex forms.

Sequence of Human CD33 full length (P20138 18-364 limits assumed): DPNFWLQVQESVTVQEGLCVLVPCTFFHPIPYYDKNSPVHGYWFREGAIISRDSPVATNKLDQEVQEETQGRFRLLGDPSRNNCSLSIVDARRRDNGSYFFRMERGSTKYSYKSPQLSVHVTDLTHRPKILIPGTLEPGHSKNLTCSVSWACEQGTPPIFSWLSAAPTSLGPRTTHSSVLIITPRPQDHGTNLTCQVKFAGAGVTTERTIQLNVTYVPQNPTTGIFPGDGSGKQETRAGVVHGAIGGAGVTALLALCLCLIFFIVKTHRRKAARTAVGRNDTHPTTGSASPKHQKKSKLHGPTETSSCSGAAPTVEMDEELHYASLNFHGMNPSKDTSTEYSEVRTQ
T1 sequence (Q04609 whole entry): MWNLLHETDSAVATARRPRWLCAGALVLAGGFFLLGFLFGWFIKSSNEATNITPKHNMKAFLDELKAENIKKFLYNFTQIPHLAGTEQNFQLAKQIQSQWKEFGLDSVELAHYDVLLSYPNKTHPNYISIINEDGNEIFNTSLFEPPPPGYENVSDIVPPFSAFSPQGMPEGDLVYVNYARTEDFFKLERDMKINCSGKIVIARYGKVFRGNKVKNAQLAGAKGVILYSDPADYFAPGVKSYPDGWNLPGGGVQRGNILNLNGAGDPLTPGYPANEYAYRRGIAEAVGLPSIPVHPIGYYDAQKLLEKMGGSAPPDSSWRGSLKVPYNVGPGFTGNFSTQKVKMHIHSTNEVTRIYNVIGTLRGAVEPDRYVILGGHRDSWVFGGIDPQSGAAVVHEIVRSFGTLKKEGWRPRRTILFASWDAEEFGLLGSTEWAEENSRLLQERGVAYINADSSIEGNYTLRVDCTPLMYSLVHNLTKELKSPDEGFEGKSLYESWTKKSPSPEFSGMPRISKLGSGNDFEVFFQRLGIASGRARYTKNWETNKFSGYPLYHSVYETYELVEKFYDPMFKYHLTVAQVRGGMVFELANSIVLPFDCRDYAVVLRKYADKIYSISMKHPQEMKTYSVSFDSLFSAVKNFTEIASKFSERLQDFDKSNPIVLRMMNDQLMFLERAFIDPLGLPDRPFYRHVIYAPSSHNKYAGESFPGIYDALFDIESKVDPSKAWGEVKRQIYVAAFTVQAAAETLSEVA

B1: C3CB97 (bispecific antibody, IgG4, V domains shown)
VH 1: QVQLVQSGSELRKPGASVKVSCKASGYTFTNYAMNWVRQAPGQGLEWMGWINTNTGNPTYAQGFTGRFVFSLDTSVSSAYLQISSLKAEDTAMYYCATDRDRGTDYWGQGTLVTVSS
VL 1: QSALTQPASVSGSPGQSITISCTGTSSDVGDYNYVSWYQQHPGKVPKLMIYDVSNRPSGVSNRFSGSMSGNTASLTISGLQAEDEADYYCSSYSSSSALEVFGGGTKLTVL
VH 2: QVQLQQSGPRLVRPSQTLSLTCAISGDSVFNNNAAWSWIRQSPSRGLEWLGRTYYRSKWLYDYAVSVKSRITVNPDTSRNQFTLQLNSVTPEDTALYYCARGYSSSFDYWGQGTLVTVSS
VL 2: QSALTQPASVSGSPGQSITISCTGTSSNIGTYKFVSWYQQHPDKAPKVLLYEVSKRPSGVSSRFSGSKSGNTASLTISGLQAEDQADYHCVSYAGSGTLLFGGGTKLTVL
In the case of B1, the “Primary AML Cell Killing EC50” value in the test with Human CD33 full length was about 0.232 nM.

B2: PSMM81 (Fab, V domains shown)
VH: QVQLVQSGAEVKKPGSSVKVSCKASGGTFDDYAISWVRQAPGQGLEWMGRIDPIEGTANYAQKFQGRVTITADESTSTAYMELSSLRSEDTAVYYCARDRYYYDGVYWYSDYFDYWGQGTLVTVS
VL: not shown
notes: Mammalian Fab supernatant; also called PSMB80
For B2, in test [1], the “EC50 (read off the curve)” value was about 0.08 µg/mL.

B3: TMCB150 (bispecific antibody, human IgG4 S228P, kappa, lambda, F234A L235A)
heavy 1: not shown
light 1: not shown
heavy 2: QVQLQQSGPRLVRPSQTLSLTCAISGDSVFNNNAAWSWIRQSPSRGLEWLGRTYYRSKWLYDYAVSVKSRITVNPDTSRNQFTLQLNSVTPEDTALYYCARGYSSSFDYWGQGTLVTVSSASTKGPSVFPLAPCSRSTSESTAALGCLVKDYFPEPVTVSWNSGALTSGVHTFPAVLQSSGLYSLSSVVTVPSSSLGTKTYTCNVDHKPSNTKVDKRVESKYGPPCPPCPAPEAAGGPSVFLFPPKPKDTLMISRTPEVTCVVVDVSQEDPEVQFNWYVDGVEVHNAKTKPREEQFNSTYRVVSVLTVLHQDWLNGKEYKCKVSNKGLPSSIEKTISKAKGQPREPQVYTLPPSQEEMTKNQVSLTCLVKGFYPSDIAVEWESNGQPENNYKTTPPVLDSDGSFLLYSKLTVDKSRWQEGNVFSCSVMHEALHNHYTQKSLSLSLGK
light 2: QSALTQPASVSGSPGQSITISCTGTSSNIGTYKFVSWYQQHPDKAPKVLLYEVSKRPSGVSSRFSGSKSGNTASLTISGLQAEDQADYHCVSYAGSGTLLFGGGTKLTVLGQPKAAPSVTLFPPSSEELQANKATLVCLISDFYPGAVTVAWKADSSPVKAGVETTTPSKQSNNKYAASSYLSLTPEQWKSHRSYSCQVTHEGSTVEKTVAPTECS
notes: IgG4 PAA; also called TMEB762×CD3B376
With B3, the binding result in the test with Rh-integrin a4b7 and in the test with Rh-CD19 was “no binding (tested: response unit ≥100 predicts high risks)” each time.

B4: C3CB12 (bispecific antibody, IgG4, V domains shown)
VH 1: not shown
VL 1: SYELTQPPSVSVSPGQTASITCSGNKLGAKFASWYQQKPGQSPVLVIYQDNKRPSGIPERFSGSNSGNTATLTISGTQAVDEADYYCQAWDSSTVVFGGGTKLTVL
VH 2: EVQLVESGGGLVQPGGSLRLSCAASGFTFNTYAMNWVRQAPGKGLEWVARIRSKYNNYATYYAASVKGRFTISRDDSKNSLYLQMNSLKTEDTAVYYCARHGNFGNSYVSWFAYWGQGTLVTVSS
VL 2: QTVVTQEPSLTVSPGGTVTLTCRSSTGAVTTSNYANWVQQKPGQAPRGLIGGTNKRAPGTPARFSGSLLGGKAALTLSGVQPEDEAEYYCALWYSNLWVFGGGTKLTVL
Turning to B4, in the test with Human CD33 full length, the “Primary AML Cell Killing EC50” value came out at 2.63 nM.

B5: C3CB103 (bispecific antibody, IgG4, V domains shown)
VH 1: QVQLVESGGGVVQPGRSLRLSCVASGFTFSSYGMHWVRQAPGKGLEWVAVISYDGSNKYYADSVKGRFTISRDNSKNTLYLQMNSLRAEGTAVYYCAKDFRSFDWLPPDSASYHGMDVWGQGTTVTVSS
VL 1: B4 VL 1 with N25D, A29D, F31Y, S33C, N51G, S66F, T69K, V80M, S92R, S93N
VH 2: B1 VH 2
VL 2: B1 VL 2
As for B5, the “Primary AML Cell Killing EC50” value in the test with Human CD33 full length was found to be 4.19 nM.

B6: C3CB102 (bispecific antibody, IgG4, V domains shown)
VH 1: not shown
VL 1: B4 VL 1
VH 2: B1 VH 2
VL 2: B1 VL 2
For the molecule B6, the “Primary AML Cell Killing EC50” value with Human CD33 full length is 4.97 nM.

B7: C3CB7 (bispecific antibody, IgG4, V domains shown)
VH 1: B1 VH 1
VL 1: B1 VL 1
VH 2: B4 VH 2
VL 2: B4 VL 2
As for B7, in the test with Human CD33 full length, the “Primary AML Cell Killing EC50” value worked out at 0.332 nM.

B8: C33B782 (antibody, IgG4, V domains shown)
VH: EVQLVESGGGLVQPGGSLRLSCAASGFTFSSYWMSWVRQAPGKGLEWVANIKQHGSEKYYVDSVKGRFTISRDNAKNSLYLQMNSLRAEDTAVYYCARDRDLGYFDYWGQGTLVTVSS
VL: B4 VL 1
notes: also called C33H72/C33L40; C33F82
In turn, B8 returned a koff in the test with Human CD33 ECD-HSA of 0.000258 s⁻¹.

B9: C33B792 (antibody, IgG4, V domains shown)
VH: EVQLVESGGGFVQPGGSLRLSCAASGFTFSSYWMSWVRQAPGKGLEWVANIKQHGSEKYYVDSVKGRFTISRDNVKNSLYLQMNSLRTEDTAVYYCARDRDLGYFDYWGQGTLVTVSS
VL: B4 VL 1 with N25D, A29N, F31Y, N51T, F61V, V80M, Y86H
notes: also called C33H87/C33L35; C33F92
As for B9, the koff with Human CD33 ECD-HSA came out at 0.000427 s⁻¹.

B10: TMEB757 (antibody, human IgG4 S228P, kappa, F234A L235A, V domains shown)
VH: EVQLLESGGGLVQPGGSLRLSCAASGFTFSSYSMSWVRQAPGKGLEWVSVISGSGGFTDYADSVKGRFTISRDNSKNTLYLHMNSLRAEDTAVYYCARMPLNSPHDYWGQGTLVTVSS
VL: AIQMTQSPSSLSASVGDRVTITCRASQGIRNDLGWYQQKPGKAPKLLIYAASSLQSGVPSRFSGSGSGTDFTLTISSLQPEDFATYYCLQDYNYPLTFGGGTKVEIKR
notes: IgG4 PAA anti-TMEFF2; re-engineered variant of TMEB675; also called TMEH460/B76L85; TMEFB757
In test [2], B10 gave a Kd of 0.31 nM, a koff of 0.000167 s⁻¹ and a kon of 542000 M⁻¹ s⁻¹.

B11: TMEB762 (antibody, human IgG4 S228P, kappa, F234A L235A, V domains shown)
VH: B10 VH with H82Q
VL: B10 VL with A1D
notes: IgG4 PAA; also called TMEH459/DL3L129
With B11, the binding result in the test with Rh-integrin a4b7 and with Rh-CD19 was “no binding (tested: response unit ≥100 predicts high risks)” throughout.
